The values below come from paper PMC4014808.

Series [1] has as its system L3MBTL2. In words: ELISA. Conditions: ELISA: 20 mM Tris-HCl pH 7.5, 150 mM NaCl, 20 mM KCl, 0.02% IGEPAL, 1 mM DTT, 1 h at room temperature, 50 uL of 50 nM biotinylated DNA per well. In general terms: An ELISA detects its analyte on a solid surface through an enzyme-linked reagent.
For series [2], the system named is MPG. In words: ELISA. Conditions: all C outside primers replaced by 5-formylcytosine (dfCTP in PCR); ELISA: 20 mM Tris-HCl pH 7.5, 150 mM NaCl, 20 mM KCl, 0.02% IGEPAL, 1 mM DTT, 1 h at room temperature; 50 uL of 50 nM biotinylated DNA per well.

For orientation: Kd means the concentration at which binding is half-saturated. Read a low Kd as a tighter complex. Take Fgf15 promoter probe, C: the equilibrium dissociation constant (Kd) in series [1] is 81.2 nM. This counts as double-digit nanomolar.

In the case of Fgf15 promoter probe, 5fC, the Kd in series [1] (all C outside primers replaced by 5-formylcytosine (dfCTP in PCR)) stood at 37.1 nM; in series [2], 13.4 nM.
